US20090214574A1
Blank lines part the entries; values can stand above or below the binder they belong to.

Experiments:
[1] = molecular target: human CD16A-Fc^48R/158F fusion protein (human) (UniProt P08637); test: affinity measurement, method not named for the TandAb
[2] = molecular target: human CD16A-Fc^48R/158V fusion protein (human) (UniProt P08637); test: as above
[3] = molecular target: human CD16A-Fc^48R/158F fusion protein (human) (UniProt P08637); test: surface plasmon resonance
[4] = molecular target: human CD16A-Fc^48R/158F fusion protein (human) (UniProt P08637); test: SPR, BIAcore 2000, antigen immobilized
[5] = molecular target: human CD16A-Fc^48R/158F fusion protein (human) (UniProt P08637); test: SPR, BIAcore 2000, antigen immobilized, koff/kon

human CD16A-Fc^48R/158F fusion protein (human), sequence (P08637 17-208): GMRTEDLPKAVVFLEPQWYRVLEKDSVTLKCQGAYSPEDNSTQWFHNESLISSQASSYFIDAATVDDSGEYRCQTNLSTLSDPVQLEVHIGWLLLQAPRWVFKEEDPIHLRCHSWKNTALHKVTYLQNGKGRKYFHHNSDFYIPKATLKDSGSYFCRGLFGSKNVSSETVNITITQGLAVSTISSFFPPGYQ
human CD16A-Fc^48R/158V fusion protein (human), sequence (P08637 17-208 L66R/F176V limits assumed): as the sequence (P08637 17-208) above, with L50R, F160V counted along it

fold improvement in affinity over the 4-LS21 scFv [1]: > 10 fold | fold improvement in affinity over the 4-LS21 scFv [2]: > 10 fold
B1: CD30×CD16^LS21 TandAb/(G2S)3 (bispecific antibody, part only; not given: anti-CD30 VH and VL, His tag, not shown: small tags and cut ends)
chain, part: EEVQLVQSGAEVKKPGESLKVSCKASGYTFTSYYMHWVRQAPGQGLEWMGIINPSGGSTSYAQKFQGRVTMTRDTSTSTVYMELSSLRSEDTAVYYCARGSAYYYDFADYWGQGTLVTVSSGGSGGSGGSGGSGGSGGSGGSGGSGGSQPVLTQPSSVSVAPGQTATISCGGHNIGSKNVHWYQQRPGQSPVLVIYQDNKRPSGIPERFSGSNSGNTATLTISGTQAMDEADYYCQVWDNYSVLFGGGTKLTVL

Kd [3]: 50 nM | koff [4]: 0.00323 s⁻¹ | kon [4]: 71300 M⁻¹ s⁻¹ | Kd [5]: 45.3 nM
B2: affinity matured anti-CD16A scFv 4-LS21 (scFv)
scFv: EVQLVQSGAEVKKPGESLKVSCKASGYTFTSYYMHWVRQAPGQGLEWMGIINPSGGSTSYAQKFQGRVTMTRDTSTSTVYMELSSLRSEDTAVYYCARGSAYYYDFADYWGQGTLVTVSSGSASAPTLKLEEGEFSEARVQPVLTQPSSVSVAPGQTATISCGGHNIGSKNVHWYQQRPGQSPVLVIYQDNKRPSGIPERFSGSNSGNTATLTISGTQAMDEADYYCQVWDNYSVLFGGGTKLTVLGQPKAAPSVTLFPPSAAAGSEQKLISEEDLNSHHHHHH
